{"source": "patent US12162924B2", "about": "“Method for the design of fibrillar collagen-mimetic peptide self-assemblies” (WISCONSIN ALUMNI RESEARCH FOUNDATION, priority 2016, dated 2024)", "type_in_all_cases": "physicochemical", "key": {"[1]": {"assay": "CD thermal denaturation (melting temperature of triple-helical assemblies)", "settings": "for Tm (° C.): Table 2, constructs that self-assemble", "protocol": "All CD data were acquired with a 202SF or 420 CD spectrophotometer from Aviv Biomedical (Lakewood, N.J.) at the UW BIF. Samples were prepared at a concentration of 0.6 mg/mL (˜160 μM) in 10 mM sodium phosphate buffer, pH 7.0, both with and without NaCl (180 mM). CD spectra were recorded at 4° C. with a 1-nm band-pass in quartz cuvettes with a 0.1-cm pathlength, using an averaging time of 4 s. For thermal denaturation experiments the CD signal was monitored at 226 nm while the sample was heated at a rate of 12° C./h in 2- or 3-° C. steps. The melting transition is indicated by a minimum on the temperature derivative of the melting curve (∂[θ]/∂T), and values (±1° C.) of melting temperature (Tm) were determined assuming constant curvature in the immediate vicinity of the transition minimum."}, "[2]": {"assay": "Evidence for symmetric self-assembly (AUC/CD/DLS/TEM/AFM/Rheology)", "settings": "Table 3", "description": "These peptides follow the following criteria for symmetric triple-helical self-assembly: • o. Peptides should embody the uninterrupted Xaa-Yaa-Gly tripeptide repeats of collagens • Peptides should be constructed to allow the formation of a polyproline-II helix. For this, their sequence should have a Gly at every third position. In addition, Pro residues should be favored at Xaa positions and Pro or Hyp residues at Yaa positions. Resulting peptides are collagen-mimetic peptides (CMPs). • i. Repulsive interstrand interactions should be installed to prevent the formation of the blunt-ended homotrimeric state. • CMPs are prone to forming blunt-ended triple helices, in general. This state should be destabilized to enable CMPs to associate with sticky-ends. • ii. The number of tripeptide repeats, nT, that constitute the CMP cannot be evenly divisible by three. • Satisfaction of this criterion is essential to obtain identical strand-offsets in the assembled state. […] This offset is nT residues for a peptide with nT tripeptide repeats. […] Thus, it is necessary to introduce attractive interstrand interactions to CMP designs that stabilize triple-helix formation only when they associate with nT-residue offsets."}, "[3]": {"assay": "Negative-stained (dry) TEM imaging of peptide assemblies", "settings": "for Feature dimensions (nm), nanofiber diameter by TEM: dried, negative-stained, mean±SD", "protocol": "(§1) All imaging was performed with a Tecnai TF-30 TEM instrument (300 kV) from FEI (Hillsboro, Oreg.) at the UW Materials Science Center (MSC; msc.engr.wisc.edu). Samples were prepared on Quantifoil R1.2/1.3 holey-carbon mesh on copper grids. Sample preparation for dry TEM was carried out at 4° C. Samples were negative-stained using freshly prepared 2.0% w/w PTA solution adjusted to pH 6 with aqueous NaOH and filtered. The peptide solution was allowed to adhere to the carbon-mesh side of the grid for 1 min, at which point excess solution was blotted with filter paper, and the grid was allowed to dry for 5 min. Negative stain was applied for 10 min by inverting the grid on a drop of PTA solution. Excess stain was removed with filter paper, and the grid was allowed to dry overnight prior to imaging. For vitreous ice cryo-TEM imaging, a solution of OKD (0.3 mg/mL) was applied to a TEM grid, glow discharged for 0.5 min at 25 mA beforehand with a Pelco easiGlow unit from Ted Pella (Redding, Calif.). The grid was allowed to equilibrate at 5° C. at 95% humidity. A drop of peptide solution was added, and the grid was then blotted and immersed in liquid ethane on a Vitrobot from FEI. The grid was transferred from liquid ethane to liquid nitrogen manually, and was stored in liquid nitrogen until imaging. Acquisition was performed at −180° C. with low dose and long exposures."}, "[4]": {"assay": "Vitreous ice cryo-TEM imaging", "settings": "0.3 mg/mL, flash frozen in liquid ethane", "protocol": "as §1"}, "[5]": {"assay": "Rheology of peptide hydrogels / hydrogel formation", "protocol": "This solution is placed in an airtight container, heated to 65° C. in a large water bath and annealed down to room temperature, overnight. The resulting hydrogel is subjected to rheological analysis (FIG. 15a).\nRheology on peptide hydrogels was performed on a TA ARES rheometer at the Soft Materials Laboratory at the University of Wisconsin—Madison, using 8-mm stainless-steel parallel-plate geometry with a 1 mm gap size. Strain sweeps (0.01-200%) maintained a fixed frequency of 2 rad/s, while a fixed strain of 1% was applied for frequency sweeps (0.1-100 rad/s)."}, "[6]": {"assay": "Tapping-mode atomic force microscopy on mica", "settings": "annealed at 0.03 mg/mL, freshly cleaved mica", "protocol": "Peptide samples were annealed at 0.03 mg/mL in 10 mM sodium phosphate buffer, pH 7.0, and applied onto freshly cleaved mica at 4° C. After 10 min, the solution of peptide was washed with cold water for 30 s, and excess water was removed with a filter paper. Samples were dried at 4° C. overnight prior to imaging. AFM images were collected in tapping mode with an Agilent 5500 SPM instrument using NCHV-A probes from Bruker (Billerica, Mass.). Data were analyzed with Gwyddion ver. 2.39 software (gwyddion.net).\nAlthough the softness of the material led to artifacts and necessitated frequent use of fresh probes, the images clearly and consistently present the self-assembled OKD nanofibers."}}, "note": "Where “and” joins values, the source holds several entries; their conditions need not be identical. Identical values can stand only once. Non-standard residues stand in square brackets, D forms with d. No end group written: not given here. Hyp = O=C(O)[C@@H]1C[C@@H](O)CN1; Orn = NCCC[C@H](N)C(=O)O"}
{"molecule": "POGPOGPOGPKGPKGPKGPOGPOGDOGDOGDO (P[Hyp]GP[Hyp]GP[Hyp]GPKGPKGPKGP[Hyp]GP[Hyp]GD[Hyp]GD[Hyp]GD[Hyp]) [Peptide 3sb-OKD]", "values": [{"measurement": "Tm (° C.)", "setting": "[1]", "result": 20, "unit": "°C"}]}
{"molecule": "POGPOGPOGPOrGPOrGPOrGPOGPOGDOGDOGDO (P[Hyp]GP[Hyp]GP[Hyp]GP[Orn]GP[Orn]GP[Orn]GP[Hyp]GP[Hyp]GD[Hyp]GD[Hyp]GD[Hyp]) [Peptide 3sb-OOrD]", "values": [{"measurement": "Evidence (constructs that do not reliably self-assemble)", "setting": "[2]", "result": "no structure"}]}
{"molecule": "POGPOGPCysGPKGPKGPKGPKGPOGPOGDOGDOGDOGDOGPOG (PXGPXGPCGPKGPKGPKGPKGPXGPXGDXGDXGDXGDXGPXG; hydroxyproline residues; MOD_RES (2)..(2) 4Hyp; MOD_RES (5)..(5) 4Hyp; MOD_RES (23)..(23) 4Hyp; MOD_RES (26)..(26) 4Hyp; MOD_RES (29)..(29) 4Hyp; MOD_RES (32)..(32) 4Hyp; MOD_RES (35)..(35) 4Hyp; MOD_RES (38)..(38) 4Hyp; MOD_RES (41)..(41) 4Hyp) [OKD2-C8]", "values": [{"measurement": "Tm (° C.)", "setting": "[1]", "result": 45, "unit": "°C"}]}
{"molecule": "POGPOGPOGPKGPKGPKGPKGHcyOGPOGDOGDOGDOGDOGPOG (PXGPXGPXGPKGPKGPKGPKGXXGPXGDXGDXGDXGDXGPXG; homocysteine, hydroxyproline residues; MOD_RES (2)..(2) 4Hyp; MOD_RES (5)..(5) 4Hyp; MOD_RES (8)..(8) 4Hyp; MOD_RES (22)..(22) Homocysteine; MOD_RES (23)..(23) 4Hyp; MOD_RES (26)..(26) 4Hyp; MOD_RES (29)..(29) 4Hyp; MOD_RES (32)..(32) 4Hyp; MOD_RES (35)..(35) 4Hyp; MOD_RES (38)..(38) 4Hyp; MOD_RES (41)..(41) 4Hyp) [OKD2-h22]", "values": [{"measurement": "Tm (° C.)", "setting": "[1]", "result": 50, "unit": "°C"}]}
{"molecule": "POGPOGPOGPOGPKGPKGPKGPKGPOGPOGDOGDOGDOGDOG (PXGPXGPXGPXGPKGPKGPKGPKGPXGPXGDXGDXGDXGDXG; hydroxyproline residues; MOD_RES (2)..(2) 4Hyp; MOD_RES (5)..(5) 4Hyp; MOD_RES (8)..(8) 4Hyp; MOD_RES (11)..(11) 4Hyp; MOD_RES (26)..(26) 4Hyp; MOD_RES (29)..(29) 4Hyp; MOD_RES (32)..(32) 4Hyp; MOD_RES (35)..(35) 4Hyp; MOD_RES (38)..(38) 4Hyp; MOD_RES (41)..(41) 4Hyp) [OKD]", "values": [{"measurement": "length of triple-helical stretches", "setting": "[3]; TEM", "result": "≤ 0.3", "unit": "μm"}, {"measurement": "Feature dimensions (nm), nanofiber diameter by TEM", "setting": "[3]", "result": "2.3±0.4", "unit": "nm"}, {"measurement": "diameter of solvated nanofibers (cryo-TEM)", "setting": "[4]", "result": "3.8±0.5", "unit": "nm"}, {"measurement": "Tm (° C.) I = 20 mM", "setting": "[1]; CD at 226 nm, 0.6 mg/mL, 10 mM sodium phosphate pH 7.0, low ionic strength I = 20 mM", "result": 49, "unit": "°C"}, {"measurement": "Tm (° C.) I = 200 mM", "setting": "[1]; CD at 226 nm, 0.6 mg/mL, 10 mM sodium phosphate pH 7.0 with 180 mM NaCl, I = 200 mM", "result": 39, "unit": "°C"}, {"measurement": "Tm (° C.)", "setting": "[1]", "result": 49, "unit": "°C"}, {"measurement": "hydrogel formation", "setting": "[5]; 4sbG series peptides", "result": "form hydrogels"}, {"measurement": "G′ (storage modulus)", "setting": "[5]; hydrogel at 1% concentration", "result": 0.5, "unit": "kPa"}, {"measurement": "G″ (loss modulus)", "setting": "[5]; hydrogel at 1% concentration", "result": 0.05, "unit": "kPa"}, {"measurement": "nanofiber length (AFM)", "setting": "[6]", "result": "up to 0.5 μm"}, {"measurement": "nanofiber thickness/diameter (AFM)", "setting": "[6]", "result": "1.2±0.2 nm and 1.2 nm"}]}
{"molecule": "POGPOGPOGPOGPKGPKGPKGPKGPOGPOGDOGDOGDOGDO (P[Hyp]GP[Hyp]GP[Hyp]GP[Hyp]GPKGPKGPKGPKGP[Hyp]GP[Hyp]GD[Hyp]GD[Hyp]GD[Hyp]GD[Hyp]) [Peptide 4sb-OKD]", "values": [{"measurement": "Tm (° C.)", "setting": "[1]", "result": 36, "unit": "°C"}]}
{"molecule": "POGPOGPOGPKGPKGPKGPOGPOGDOGDOGDOG (P[Hyp]GP[Hyp]GP[Hyp]GPKGPKGPKGP[Hyp]GP[Hyp]GD[Hyp]GD[Hyp]GD[Hyp]G) [Peptide 3sbG-OKD]", "values": [{"measurement": "Tm (° C.)", "setting": "[1]", "result": 33, "unit": "°C"}]}
{"molecule": "PKGPKGPKGPOGPOGDOGDOGDOGPOGPOGPOG (PKGPKGPKGP[Hyp]GP[Hyp]GD[Hyp]GD[Hyp]GD[Hyp]GP[Hyp]GP[Hyp]GP[Hyp]G) [Peptide 3sbG-KDO]", "values": [{"measurement": "Tm (° C.)", "setting": "[1]", "result": 26, "unit": "°C"}]}
{"molecule": "PKGPKGPKGPOGPOGDOGDOGDOGPOGPOGPO (PKGPKGPKGP[Hyp]GP[Hyp]GD[Hyp]GD[Hyp]GD[Hyp]GP[Hyp]GP[Hyp]GP[Hyp]) [Peptide 3sb-KDO]", "values": [{"measurement": "Tm (° C.)", "setting": "[1]", "result": 13, "unit": "°C"}]}
{"molecule": "POGPOGPO…cyOGPOGDOGDOGDOGDOGPOG / POGPOGPCysGPKGPKGPKGPKGPOGPOGDOGDOGDOGDOGPOG (not fully specified; homocysteine-cysteine crosslinked heterodimer; MOD_RES (2)..(2) 4Hyp; MOD_RES (5)..(5) 4Hyp; MOD_RES (8)..(8) 4Hyp; MOD_RES (22)..(22) Homocysteine; MOD_RES (23)..(23) 4Hyp; MOD_RES (26)..(26) 4Hyp; MOD_RES (29)..(29) 4Hyp; MOD_RES (32)..(32) 4Hyp; MOD_RES (35)..(35) 4Hyp; MOD_RES (38)..(38) 4Hyp; MOD_RES (41)..(41) 4Hyp) chain 1: PXGPXGPXGPKGPKGPKGPKGXXGPXGDXGDXGDXGDXGPXG chain 2: PXGPXGPCGPKGPKGPKGPKGPXGPXGDXGDXGDXGDXGPXG", "values": [{"measurement": "Feature dimensions (nm), nanofiber diameter by TEM", "setting": "[3]", "result": "2.4±0.4", "unit": "nm"}, {"measurement": "Tm (° C.)", "setting": "[1]", "result": 60, "unit": "°C"}]}
